The target of one test is SLAMF9 protein (UniProt Q96A28 19-236, limits assumed). Nature of the test: phage clone on SLAMF9 protein.
In test [1] the target is T1, Fc Receptor-like 5 (FcRL5), full length, overexpressed on 3T3 or Raji cells (human, UniProt Q96RD9 16-977).
T1 construct: also called 3T3-FcRL5
T1 sequence: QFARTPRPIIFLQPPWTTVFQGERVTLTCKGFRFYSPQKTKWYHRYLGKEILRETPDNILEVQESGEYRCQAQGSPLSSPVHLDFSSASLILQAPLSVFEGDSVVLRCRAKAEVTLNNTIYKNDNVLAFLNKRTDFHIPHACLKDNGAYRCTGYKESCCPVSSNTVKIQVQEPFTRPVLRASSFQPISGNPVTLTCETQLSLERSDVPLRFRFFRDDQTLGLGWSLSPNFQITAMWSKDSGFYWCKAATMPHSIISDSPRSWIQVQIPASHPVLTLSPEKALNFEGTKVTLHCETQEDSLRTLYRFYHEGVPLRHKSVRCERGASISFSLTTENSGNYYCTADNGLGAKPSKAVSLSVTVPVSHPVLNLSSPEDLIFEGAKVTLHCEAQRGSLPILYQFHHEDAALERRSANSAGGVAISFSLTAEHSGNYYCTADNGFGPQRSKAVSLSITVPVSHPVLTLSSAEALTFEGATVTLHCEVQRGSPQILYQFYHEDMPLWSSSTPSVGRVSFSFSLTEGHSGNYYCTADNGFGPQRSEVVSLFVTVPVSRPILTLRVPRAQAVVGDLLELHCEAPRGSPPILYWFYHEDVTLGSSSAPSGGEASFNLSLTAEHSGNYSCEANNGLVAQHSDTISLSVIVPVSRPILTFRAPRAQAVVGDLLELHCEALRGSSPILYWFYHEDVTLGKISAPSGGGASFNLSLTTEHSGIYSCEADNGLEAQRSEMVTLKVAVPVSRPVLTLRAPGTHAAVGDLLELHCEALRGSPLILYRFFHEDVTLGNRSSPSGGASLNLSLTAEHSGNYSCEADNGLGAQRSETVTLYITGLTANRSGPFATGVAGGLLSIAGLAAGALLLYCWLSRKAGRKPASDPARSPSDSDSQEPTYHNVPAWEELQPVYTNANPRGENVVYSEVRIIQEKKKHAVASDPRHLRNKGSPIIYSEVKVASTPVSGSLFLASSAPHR
As to the kind of experiment: phage clone screening on cells. An outline of the steps:
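scFv phage clones were incubated with live 3T3 cells overexpressing full-length FcRL5, then detected with mouse anti-M13 mAb and PE-anti-mouse Ig by flow cytometry. 3T3 cells expressing FcRL1, 2, 3, 4 or 6 served as negative-control targets.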

Test [2] deals with T2, FcRL2, overexpressed on 3T3 cells (UniProt Q96LA5 20-508, limits assumed).
T2 construct: whole, on cells
T2 sequence (looked up): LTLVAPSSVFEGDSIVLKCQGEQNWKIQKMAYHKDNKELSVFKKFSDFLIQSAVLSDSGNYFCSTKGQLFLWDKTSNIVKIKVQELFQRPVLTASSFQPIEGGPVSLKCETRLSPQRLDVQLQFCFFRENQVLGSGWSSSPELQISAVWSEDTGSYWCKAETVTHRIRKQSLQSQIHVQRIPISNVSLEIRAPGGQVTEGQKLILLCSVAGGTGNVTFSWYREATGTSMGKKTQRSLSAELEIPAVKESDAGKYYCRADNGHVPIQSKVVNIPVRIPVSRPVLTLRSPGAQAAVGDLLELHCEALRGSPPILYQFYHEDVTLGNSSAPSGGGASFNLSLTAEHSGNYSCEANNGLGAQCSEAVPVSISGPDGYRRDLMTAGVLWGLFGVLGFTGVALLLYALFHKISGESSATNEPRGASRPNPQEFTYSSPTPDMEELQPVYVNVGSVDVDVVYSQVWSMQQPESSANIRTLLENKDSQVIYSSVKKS
Nature of the test: phage clone on 3T3-FcRL2 cells.

In test [3] the target is T3, FcRL1, overexpressed on 3T3 cells (UniProt Q96LA6 17-429, limits assumed).
T3 construct: whole, on cells
T3 sequence (looked up): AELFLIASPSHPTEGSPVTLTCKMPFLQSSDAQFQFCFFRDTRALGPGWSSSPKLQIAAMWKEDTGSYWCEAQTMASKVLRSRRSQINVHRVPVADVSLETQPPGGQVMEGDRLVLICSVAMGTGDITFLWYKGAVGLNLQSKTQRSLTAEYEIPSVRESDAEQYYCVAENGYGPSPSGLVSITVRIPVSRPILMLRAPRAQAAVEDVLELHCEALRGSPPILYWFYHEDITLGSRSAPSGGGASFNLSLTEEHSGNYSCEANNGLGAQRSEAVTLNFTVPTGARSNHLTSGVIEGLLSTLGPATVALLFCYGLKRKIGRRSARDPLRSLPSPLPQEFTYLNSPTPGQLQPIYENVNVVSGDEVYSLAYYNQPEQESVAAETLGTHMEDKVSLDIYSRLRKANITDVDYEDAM
Nature of the test: phage clone on 3T3-FcRL1 cells.

Test [4] addresses T4, FcRL3, overexpressed on 3T3 cells (UniProt Q96P31 18-734, limits assumed).
T4 construct: whole, on cells
T4 sequence (looked up): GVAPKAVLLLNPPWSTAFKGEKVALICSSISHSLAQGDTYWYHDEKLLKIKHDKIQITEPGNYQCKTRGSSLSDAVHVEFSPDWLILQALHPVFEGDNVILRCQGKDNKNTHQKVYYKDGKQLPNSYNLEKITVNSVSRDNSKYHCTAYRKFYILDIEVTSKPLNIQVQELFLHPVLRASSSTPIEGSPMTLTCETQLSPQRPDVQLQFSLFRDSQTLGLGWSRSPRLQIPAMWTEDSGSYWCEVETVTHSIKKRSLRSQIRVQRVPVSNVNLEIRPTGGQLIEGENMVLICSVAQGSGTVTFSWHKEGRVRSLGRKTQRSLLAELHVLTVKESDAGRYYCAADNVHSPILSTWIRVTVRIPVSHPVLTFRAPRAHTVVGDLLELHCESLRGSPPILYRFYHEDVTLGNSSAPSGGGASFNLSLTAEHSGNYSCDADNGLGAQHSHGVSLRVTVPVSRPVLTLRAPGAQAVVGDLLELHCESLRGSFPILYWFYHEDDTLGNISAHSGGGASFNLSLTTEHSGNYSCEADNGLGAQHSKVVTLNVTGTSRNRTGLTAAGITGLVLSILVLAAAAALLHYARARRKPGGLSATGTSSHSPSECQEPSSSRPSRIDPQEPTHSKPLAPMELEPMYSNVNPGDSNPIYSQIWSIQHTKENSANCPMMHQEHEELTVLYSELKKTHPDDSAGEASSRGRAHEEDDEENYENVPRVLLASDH
Nature of the test: phage clone on 3T3-FcRL3 cells.

SLAMF9 protein, sequence (Q96A28 19-236 limits assumed): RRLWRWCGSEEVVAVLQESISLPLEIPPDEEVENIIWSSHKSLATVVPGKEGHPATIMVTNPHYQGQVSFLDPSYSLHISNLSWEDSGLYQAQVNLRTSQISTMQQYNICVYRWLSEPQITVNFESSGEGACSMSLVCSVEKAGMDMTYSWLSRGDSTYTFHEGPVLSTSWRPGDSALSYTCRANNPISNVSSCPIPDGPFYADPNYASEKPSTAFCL

B1: ET200-116 (scFv)
scFv: QPVLTQPPSVSVSPGQTAAIPCSGDKLGDKFASWYQQKPGQSPVLVIYQDTKRPSGIPERFSGSNSGNTATLTISGTQAMDEADYYCQTWASGIVVFGGGTKLTVLGSRGGGGSGGGGSGGGGSLEMAQVQLQQSGPGLVKPSQTLSLTCAISGDSVSSNSAAWNWIRQSPSRGLEWLGRTYYRSKWYNDYAVSVKSRITINPDTSKNQFSLQLNSVTPEDTAVYYCARERSGWKGFDYWGQGTLVTVSSTSGQAGQHHHHHHGAYPYDVPDYAS
notes: screened as phage clone; entry is VL-linker-VH-His tag-HA tag
Consider B1, for which the binding result is “no binding” with SLAMF9 protein; “binds” in test [1]; “no binding” in test [2]; “no binding” in test [3]; “no binding” in test [4].

B2: ET200-115 (scFv)
scFv: QSVLTQPPSVSGAPGQRVTISCTGSSSNIGARYDVHWYQQLPGTAPRLLISANYDRPSGVPDRFSGSKSGTSASLAITGLQAEDEADYYCQSYDSSVSAWVFGGGTKVTVLGSRGGGGSGGGGSGGGGSLEMAEVQLVQSGAEVKEPGASVRISCQASGYNFISYYMHWVRQAPGQGLEWMGTINPGSGETDYSQKLQGRVTMTRDPSTGTFDMGLSSLTSGDTAVYYCATGLIRGASDAFNIWGRGTMVTVSSTSGQAGQHHHHHHGAYPYDVPDYAS
notes: as for B1
As for B2, the binding result with SLAMF9 protein is reported as “no binding”; in test [1], “binds”; in test [2] it was “no binding”; in test [3] it was “no binding”; in test [4] it was “no binding”.

B3: ET200-110 (scFv)
scFv: QSVLTQPPSASGTPGQRVTISCSGSSSNIGTNGVNWFQQFPGTAPKLLIYTNDQRPSGVPDRFSGSKSGTSASLAISGLQSADEADYYCAVWDHSLNGPVFGGGTKLTVLGSRGGGGSGGGGSGGGGSLEMAQVQLVQSGAEVKKPGSSVKVSCKASGGTFSSYAISWVRQAPGQGLEWMGGIIPIFGTANYAQKFQGRVTITADESTSTAYMELSSLRSEDTAVYYCARGAGFDAFDIWGQGTMVTVSSTSGQAGQHHHHHHGAYPYDVPDYAS
notes: as for B1
Regarding B3, the binding result in the test with SLAMF9 protein was “no binding”; in test [1], “binds”; in test [2] it was “no binding”; in test [3], “no binding”; in test [4] it was “no binding”.

B4: ET200-113 (scFv)
scFv: QSVVTQPPSVSAAPGQKVTISCSGSSSNIGNNYVSWYQQLPGTAPKLLIYDNNKRPSGIPDRFSGSKSGTSATLGITGLQTGDEADYYCGTWDSSLSAAYVFGTGTKVTVLGSRGGGGSGGGGSGGGGSLEMAQVQLVQSGAEVKKPGASVKVSCKASGYSFTSYTISWVRQAPGQGLEWMGWVSTYNGLRNYAQNLQGRVTMTTDTLTTTAYMELRSLRSDDTAVYYCVREGSPDYGDFAAFDYWGQGTLVTVSSTSGQAGQHHHHHHGAYPYDVPDYAS
notes: as for B1
Regarding B4, the binding result is recorded as “no binding” with SLAMF9 protein; “binds” in test [1]; “no binding” in test [2]; “no binding” in test [3]; “no binding” in test [4].

B5: ET200-112 (scFv)
scFv: QAVLTQPPSASGTPGQRVTISCSGSSSNIGSNTVNWYQQLPGTAPKLLMYSNDQRPSGVPDRFSGSKSGTSASLAISGLQSEDEADYYCAAWDDSLNGYVFAAGTQLTVLSSRGGGGSGGGGSGGGGSLEMAQVQLQQWGAGLLKPSETLSLTCAVYGGSFSGYYWSWIRQPPGKGLEWIGEINHSGSTNYNPSLKSRVTISVDTSKNQFSLKLSSVTAADTAVYYCAREGLDAFDIWGQGTMVTVSSTSGQAGQHHHHHHGAYPYDVPDYAS
notes: as for B1
Regarding B5, the binding result was “no binding” with SLAMF9 protein; “binds” in test [1]; “no binding” in test [2]; “no binding” in test [3]; “no binding” in test [4].
